From patent US20260070974A1 (NONA BIOSCIENCES SUZHOU, published 2026)
Each block holds one binder with its values, some of them ahead of it.

Experiments:
[1] = target: T1, mouse Siglec-15-his protein (Acrobiosystems, Cat #: SG5-M52H7) (mouse); assay: ELISA, coated mouse Siglec-15-his
T1 construct: Bought protein; also called mouse Siglec-15 protein
Procedure: (§1) […] mouse Siglec-15-his protein (Acrobiosystems, Cat #: SG5-M52H7) dissolved in PBS was added to an ELISA plate at 100 μL/well for coating and the plate was incubated overnight at 4° C. The ELISA plate was then blocked with PBST (PBS+0.05% Tween 20) containing 2% BSA at 200 μL/well and incubated at 37° C. for 1 h. The ELISA plate was washed 4 times with PBST. The anti-Siglec-15 antibody diluted in a gradient (5-fold dilution, starting concentration: 6.67 nM) was added to the ELISA plate at 100 μL/well and the plate was incubated at 37° C. for 1 h. The ELISA plate was washed 4 times with PBST. The goat anti-human IgG (H+L)-HRP (1:5000, Jackson, Cat: 109-035-088) was added at 100 μL/well and the plate was incubated at 37° C. for 1 h. The ELISA plate was washed 4 times with PBST. The TMB substrate (Biopanda, Cat: TMB-S-003) was added at 100 μL/well, and the plate was incubated at room temperature for 5 min, and then the stop buffer (Solarbio, Cat #: C1058) was added at 100 μL/well to stop the reaction.

[2] = target: T2, human Siglec-15 ECD-his protein (Acrobiosystems, Cat #: SG5-H52H3) (human, UniProt Q6ZMC9 20-263); assay: ELISA, coated human Siglec-15 ECD-his
T2 construct: Bought protein; only its extracellular domain stood in the assay; also called human Siglec-15 protein; recombinant human Siglec-15 protein; not shown: his tag
T2 sequence: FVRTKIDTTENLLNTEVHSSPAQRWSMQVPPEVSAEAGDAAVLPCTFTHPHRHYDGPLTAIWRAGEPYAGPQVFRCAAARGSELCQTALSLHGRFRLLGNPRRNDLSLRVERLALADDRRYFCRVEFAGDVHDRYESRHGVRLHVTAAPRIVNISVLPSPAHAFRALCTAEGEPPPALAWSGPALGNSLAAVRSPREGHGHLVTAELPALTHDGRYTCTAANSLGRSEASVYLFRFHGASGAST
Procedure: as §1, with “human Siglec-15 ECD-his” for “mouse Siglec-15-his”, “SG5-H52H3)” for “SG5-M52H7)”, “Cat #:” for “Cat:”

[3] = target: T3, cynomolgus monkey Siglec-15-his protein (Acrobiosystems, Cat #: SG5-C52H6) (cynomolgus monkey, UniProt Q6ZMC9 20-263 (human entry)); assay: ELISA, coated cynomolgus monkey Siglec-15-his
T3 construct: Bought protein; also called cynomolgus monkey Siglec-15 protein; not shown: his tag
T3 chain: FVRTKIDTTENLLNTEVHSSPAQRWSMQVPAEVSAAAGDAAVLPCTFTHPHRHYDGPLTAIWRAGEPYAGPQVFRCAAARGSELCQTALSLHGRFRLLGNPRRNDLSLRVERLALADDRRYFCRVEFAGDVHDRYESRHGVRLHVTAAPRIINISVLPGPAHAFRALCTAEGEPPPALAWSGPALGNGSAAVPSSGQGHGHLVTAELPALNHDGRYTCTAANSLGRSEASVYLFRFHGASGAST
Procedure: […] cynomolgus monkey Siglec-15-his protein (Acrobiosystems, Cat #: SG5-C52H6) dissolved in PBS was added to an ELISA plate at 100 μL/well for coating and the plate was incubated overnight at 4° C. The ELISA plate was then blocked with PBST (PBS+0.05% Tween 20) containing 2% BSA at 200 μL/well and incubated at 37° C. for 1 h. The ELISA plate was washed 4 times with PBST. The anti-Siglec-15 antibody diluted in a gradient (5-fold dilution, starting concentration: 6.67 nM) was added to the ELISA plate at 100 µL/well and the plate was incubated at 37° C. for 1 h. The ELISA plate was washed 4 times with PBST. The goat anti-human IgG (H+L)-HRP (1:5000, Jackson, Cat #: 109-035-088) was added at 100 μL/well and the plate was incubated at 37° C. for 1 h. The ELISA plate was washed 4 times with PBST. The TMB substrate (Biopanda, Cat #: TMB-S-003) was added at 100 μL/well, and the plate was incubated at room temperature for 5 min, and then the stop buffer (Solarbio, Cat #: C1058) was added at 100 μL/well to stop the reaction.

[4] = target: T4, human Siglec-15 on CHO-K1/human Siglec-15 cells (KYinno, Beijing) (human, UniProt Q6ZMC9 20-328); assay: flow cytometry on CHO-K1/human Siglec-15 cells
T4 sequence: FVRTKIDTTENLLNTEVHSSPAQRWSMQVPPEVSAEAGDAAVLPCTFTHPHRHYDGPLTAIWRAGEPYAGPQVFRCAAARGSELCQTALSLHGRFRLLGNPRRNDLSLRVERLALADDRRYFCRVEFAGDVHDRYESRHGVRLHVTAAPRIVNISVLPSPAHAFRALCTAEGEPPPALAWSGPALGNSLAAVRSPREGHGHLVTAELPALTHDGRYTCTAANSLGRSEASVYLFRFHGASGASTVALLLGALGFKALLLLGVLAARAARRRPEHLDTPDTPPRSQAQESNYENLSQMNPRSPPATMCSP
Procedure: (§2) CHO-K1/human Siglec-15 cells (KYinno, Beijing) were adjusted to a density of 1×10⁶/mL with PBS, and the cell suspension was added to a 96-well V-bottom plate at 100 μL/well. The 96-well V-bottom plate was centrifuged at 1000 rpm for 5 min and washed once with PBS+2% FBS. The cells were resuspended in 100 L of antibody diluted in a gradient (5-fold dilution, starting concentration: 500 nM) and incubated at 4° C. for 1 h, and PR300066 and hIgG1 were used as positive control and negative control, respectively. After 1 h, the cells were washed twice with PBS+2% FBS. The cells were incubated with 100 μL of Alexa Fluor 488 goat anti-human IgG (Jackson, Cat #: 109-545-098) at 4° C. for 1 h in the dark and then washed twice with PBS+2% FBS. The cells were then resuspended in 200 μL of PBS+2% FBS. The fluorescence intensity of the cells was analyzed using a BD FACSCanto™ II flow cytometer.

[5] = target: T2, human Siglec-15 ECD-his protein …; assay: BLI (Octet RED96), antibody on AHC sensor, Siglec-15 ECD-his as analyte
Procedure: Recombinant Human Siglec-15 Protein Affinity was determined using an Octet RED96 instrument (ForteBio) and an anti-human IgG Fc capture sensor (AHC biosensor, ForteBio, Cat #: 18-5060) according to the detailed procedures and methods provided by the manufacturer. Specifically, candidate antibodies were each diluted to a final concentration of 6 µg/mL and directly immobilized on AHC biosensors for kinetic measurements. The antigenic protein Siglec-15 ECD-his protein (Acrobiosystems, Cat #: SG5-H52H3) was diluted with 10× Kinetics buffer to 3 concentrations of 60 nM, 30 nM, and 15 nM separately and injected as the analyte for 120 s with a dissociation time of 400 s and then subjected to regeneration with 10 mM glycine HCl (pH 1.5) for 15 s. The association rate (kon) and dissociation rate (kdis) were calculated using a simple one-to-one Languir binding model (Octet Red96 data analysis software). The equilibrium dissociation constant (kD) was calculated as the ratio of kdis/kon.

[6] = target: T5, cynomolgus monkey Siglec-15 on CHO-K1/cynomolgus monkey Siglec-15 cells (cynomolgus monkey, UniProt Q6ZMC9 20-328 (human entry)); assay: flow cytometry on CHO-K1/cynomolgus monkey Siglec-15 cells
T5 chain: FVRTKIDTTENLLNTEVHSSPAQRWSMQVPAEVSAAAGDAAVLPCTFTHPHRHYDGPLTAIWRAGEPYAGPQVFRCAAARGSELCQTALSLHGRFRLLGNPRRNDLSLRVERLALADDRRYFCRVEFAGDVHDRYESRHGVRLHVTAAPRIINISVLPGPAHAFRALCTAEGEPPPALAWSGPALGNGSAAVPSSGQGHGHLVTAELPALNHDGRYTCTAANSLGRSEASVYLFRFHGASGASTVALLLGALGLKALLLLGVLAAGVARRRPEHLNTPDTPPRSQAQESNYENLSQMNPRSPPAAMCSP
Procedure: as §2, with “cDNAs encoding cynomolgus monkey Siglec-15 (the amino acid sequence of which is set forth in SEQ ID NO: 155) were obtained by gene synthesis and cloned into the expression vector pcDNA3.1, and then the expression vector was transfected into CHO-K1 cells to construct CHO-K1/cynomolgus monkey Siglec-15” for “CHO-K1/human Siglec-15”, “cells expressing cynomolgus monkey Siglec-15. CHO-K1/cynomolgus monkey Siglec-15 cells” for “cells (KYinno, Beijing)”, “100 µL/well.” for “100 μL/well.”, “100 μL” for “100 L”, “BD FACS Canto™” for “BD FACSCanto™”

B3: PR301289-2 (antibody, human IgG1, kappa, V domains shown)
VH: QVQLVQSGAEVKKPGASVKVSCRASGYTFTSYDINWVRQATGQGLEWMGWMNPHSGDTGYAQNFQGRVTMTWQTSISTAYMELSSLRSEDTAVYYCARRRVGVYYHGMDVWGQGTTVTVSS
VL: ENVLTQSPGTLSLSPGERATLSCRASQSVSSSYFGWYQQKPGQAPRLLIYGASSRATGIPDRFSGSGSGTDFTLTISRLEPEDFAVYYCQQYGSSPITFGQGTRLEIKR
notes: PTM variant of PR301289: HFR3 N/Q; CDRH3 YYY/YYH; human IgG1/kappa
- EC50 [2]: 0.029 nM
- EC50 [4]: 1.26 nM
- Maximum (MFI) [4]: 28800 MFI
- EC50 [6]: 1.34 nM
- Maximum (MFI) [6]: 4420 MFI
- Kd [5]: 0.19 nM
- koff [5]: 5.96e-05 s⁻¹
- kon [5]: 314000 M⁻¹ s⁻¹

B4: PR300526 (antibody, human IgG1, kappa, V domains shown)
VH: QVQLVQSGAEVKKPGASVKVSCKASGYTFTDYYMHWVRQAPGQGLEWMGWINPNSDGTNYAQRFQGRVTMTRDTSISTAYMELSRLRSDDTAVYYCARGRLLRFFDWLDVMDAWGQGTSVTVSS
VL: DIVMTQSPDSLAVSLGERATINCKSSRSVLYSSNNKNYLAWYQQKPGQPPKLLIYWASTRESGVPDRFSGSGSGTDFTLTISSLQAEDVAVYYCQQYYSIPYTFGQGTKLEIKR
- EC50 [1]: 0.104 nM
- EC50 [2]: 0.02 nM
- EC50 [3]: 0.071 nM

Further lines, results first:

- EC50 [1]: 0.013 nM
- EC50 [2]: 0.01 nM
- EC50 [3]: ~0.011 nM
- EC50 [4]: 3.45 nM
- Maximum (MFI) [4]: 24000 MFI
- Kd [5]: 0.00305 nM
- koff [5]: 3.25e-06 s⁻¹
- kon [5]: 1.07e+06 M⁻¹ s⁻¹
B1: PR300659 (antibody, human IgG1, kappa, V domains shown)
VH: QVQLVESGGGVVQPGRSLRLSCAASGFIFSSYDIYWVRQAPGKGLEWVAVIWHDGSNKYYADSVKGRFTISRDNSKNTVYLQMNSLRAEDTAVYYCARDTHSYGSRIYYDYNYGMDVWGQGTTVTVSS
VL: DIQMTQSPSSLSASVGDRVSITCRASQSISSYLNWYQQKPGKAPKLLIYAASSLQSGVPSRFSGSGSGADFTLTISSLQPEDFATYYCQQTYSPPFTFGPGTKVDIKR

- EC50 [2]: 0.02 nM
- EC50 [4]: 1.81 nM
- Maximum (MFI) [4]: 24400 MFI
- EC50 [6]: 5.26 nM
- Maximum (MFI) [6]: 4280 MFI
- Kd [5]: 0.137 nM
- koff [5]: 4.93e-05 s⁻¹
- kon [5]: 360000 M⁻¹ s⁻¹
B2: PR301286-5 (antibody, human IgG1, kappa, V domains shown)
VH: QVQLVESGGGVVQPGKSLRLSCAASGFTFSSYGMHWVRQAPGKGLEWVAVIWIDASNRYYAASVKGRFTISRDNSKNTLYLQMNSLRAEDTAVYYCTRGYGDYAYVMDVWGQGASVTVSS
VL: DIVMTQSPLSLPVTPGEPASISCRSSQSLLPGSGYNYLDWYLQKPGQSPQLLIYLGSNRASGVPDRFSGSGSGTDFTLKISRVEAEDVGIYYCMQALQSPLTFGGGTKVEIKR
notes: PTM variant of PR301286: VH(HCDR2) G/A; VL(LCDR1) N/S; human IgG1/kappa
